We go through 7 molecules from US20180142016A1 (EUREKA THERAPEUTICS, published 2018).

Numbering of substitutions follows the chain as printed.

The target of this test is T1, human ROR1 on the cell surface (human, UniProt Q01973 30-937).
T1 construct: Endogenous ROR1 of MDA-MB-231, A549, H1299, Jeko-1, primary CLL cells; also called cell surface ROR1; ROR1 positive cells
Nature of the test: flow cytometry, Zenon Alexa Fluor 647-labelled antibody on CD5+ CD19+ CLL cells of patient 13, MFI of the isotype control at the same concentration subtracted. On the procedure:
Anti-ROR1 and control IgG1 antibodies were labeled using a Zenon® Alexa Fluor® 647 human IgG labeling kit (Life Technologies) according to the manufacturer's directions. Frozen peripheral blood mononuclear cells (PBMC) from CLL patients (AllCells LLC) were thawed and washed in FACS buffer (PBS, 2% heat inactivated FBS, 0.1% NaN3). CLL cells were counted and resuspended at 4×10E6 cell/mL in FACS buffer. 2×10E5 cells per test were then incubated in […] FACS buffer with phycoerythrin (PE)-labeled anti-CD5, […] isothiocyanate (FITC)-labeled anti-CD19 (BD Biosciences) and Zenon® Alexa Fluor® 647-labelled anti-ROR1 or control human IgG1 ET901 (Eureka Therapeutics) for 30 minutes on ice. Following incubation, the cells were washed twice in FACS buffer and fixed in 2% paraformaldehyde in PBS (final concentration). Cells were run on a BD LSRII flow cytometer (BD Biosciences) and analyzed using FlowJo software (Treestar).
CLL cells identified as CD5 and CD19 double positive were assessed for anti-ROR1 or control Ig staining.
A general note: A flow cytometer gives signals particle by particle.

T1 sequence (Q01973 30-937 limits assumed): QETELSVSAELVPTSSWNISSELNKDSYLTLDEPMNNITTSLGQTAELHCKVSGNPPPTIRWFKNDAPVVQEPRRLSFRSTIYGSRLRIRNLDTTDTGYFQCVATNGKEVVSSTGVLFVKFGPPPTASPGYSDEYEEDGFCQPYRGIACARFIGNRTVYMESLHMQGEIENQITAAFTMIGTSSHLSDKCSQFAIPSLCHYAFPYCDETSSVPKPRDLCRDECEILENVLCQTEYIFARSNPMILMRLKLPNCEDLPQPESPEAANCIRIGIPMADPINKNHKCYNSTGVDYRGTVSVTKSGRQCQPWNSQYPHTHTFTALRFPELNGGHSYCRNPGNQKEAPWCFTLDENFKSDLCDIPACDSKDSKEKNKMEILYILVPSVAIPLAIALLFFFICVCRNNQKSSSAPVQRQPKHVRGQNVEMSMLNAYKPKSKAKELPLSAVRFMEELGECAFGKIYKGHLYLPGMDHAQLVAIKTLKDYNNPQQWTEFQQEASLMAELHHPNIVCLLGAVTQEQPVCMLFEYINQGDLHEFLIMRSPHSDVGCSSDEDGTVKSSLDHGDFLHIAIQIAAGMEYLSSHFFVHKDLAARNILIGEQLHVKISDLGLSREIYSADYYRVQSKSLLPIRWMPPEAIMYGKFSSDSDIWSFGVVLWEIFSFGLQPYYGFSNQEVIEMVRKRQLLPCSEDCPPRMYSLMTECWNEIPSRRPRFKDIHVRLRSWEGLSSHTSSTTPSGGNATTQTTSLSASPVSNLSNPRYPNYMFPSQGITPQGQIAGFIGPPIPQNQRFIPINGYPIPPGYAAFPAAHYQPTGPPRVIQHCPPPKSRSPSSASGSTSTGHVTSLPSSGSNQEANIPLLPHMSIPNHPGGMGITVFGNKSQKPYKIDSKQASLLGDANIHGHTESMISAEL

B1: 601-86 (antibody, V domains shown)
VH: QVTLKESGPTLLKPTQTLTLTCTFSGFSLSTRGVGVGWIRQPPGQALEWLTLIYWDDDKRYSPSLKSRLTITKDTSKNQVVLTMTNMESVDTATYYCAQQTMTGAFDIWGQGTTVTVSS
VL: DIQMTQSPSSVSASVGDRVTITCRASQGISTLLAWYQQKPGKAPKLLISSASSLQSGVPARFSGSGSGTDFTLTISSLQPEDFATYYCQQSYRAPTFGQGTKVEIK
modifications: Zenon Alexa Fluor 647 label, bound non-covalently to the Fc, is not carried in the letters
notes: the phage clone of the same number is m27; also called Antibody 601-86; copies: 2 + 2
For B1, the binding result is listed as “binds”.

B2: 601-51 (antibody, V domains shown)
VH: not shown
VL: QSALTQPASVSGSPGQSITISCTGTSSDFGDYDYVSWYQQHPGKAPKLMIYDVSDRPSGVSNRFSGSKSGNTASLTISGLQAEDEADYFCSSFTTSSTLVFGGGTKLTVL
modifications: Zenon Alexa Fluor 647 label, bound non-covalently to the Fc, is not carried in the letters
notes: the phage clone of the same number is m19; also called Antibody 601-51; copies: 2 + 2
Turning to B2, the binding result is recorded as “binds”.

B3: 601-56 (antibody, V domains shown)
VH: QLQLQESGPGLVKPSETLSLTCTVSGGSISSSSYYWGWIRQPPGKGLEWIGSIYYSGSTYYNPSLKSRVTISVDTSKNQFSLKLGSVTAADTAVYYCARHDGTDAFDIWGQGTTVTVSS
VL: B2 VL with A3V, F93L
modifications: Zenon Alexa Fluor 647 label, bound non-covalently to the Fc, is not carried in the letters
notes: the phage clone of the same number is m28; also called Antibody 601-56; copies: 2 + 2
B3: the binding result is “binds”.

B4: 601-1 (antibody, V domains shown)
VH: EVQLVESGGGLVKPGGSLRLSCAASGFTFSDYYMSWIRQAPGKGLEWVSYISDSTNTIYYADSVKGRFTVSRDNPKNSLYLQMISLRAEDTAVYYCARAVGAGEGFDHWGQGTLVTVSS
VL: not shown
modifications: Zenon Alexa Fluor 647 label, bound non-covalently to the Fc, is not carried in the letters
notes: the phage clone of the same number is m13; also called Antibody 601-1; copies: 2 + 2
Regarding B4, the binding result is on record as “binds”.

B5: 601-69 (antibody, V domains shown)
VH: QVQLVQSGAEVKKPGESLKISCKGSGYSFTSYWIGWVRQMPGKGLEWMGIIYPGDSDTRYSPSFQGQVTISADKSISTAYLQWSSLKASDTAMYYCARLSSSSYDAFDIWGQGTMVTVSS
VL: QSALTQPASVSGSPGQSITISCTGTSSDVGGYNYVSWYQQHPGKAPKLMIYDVSNRPSGVSNRFSGSKSGNTASLTISGLQAEDEADYYCSSYTSSSIPWVFGGGTKLTVL
modifications: Zenon Alexa Fluor 647 label, bound non-covalently to the Fc, is not carried in the letters
notes: the phage clone of the same number is m50; also called Antibody 601-69; copies: 2 + 2
In the case of B5, the binding result is “binds”.

B6: 601-137 (antibody, V domains shown)
VH: QVQLQQSGAEVKKPGASVKVSCKASGYTFSRYYIHWVRQAPGQGLEWMGIINTDGGTTTYAQKFQGRLTMTRDTSTSTVYMELSSLRSDDTAVYYCARDYGTIDARRFDYWGQGTLVTVSS
VL: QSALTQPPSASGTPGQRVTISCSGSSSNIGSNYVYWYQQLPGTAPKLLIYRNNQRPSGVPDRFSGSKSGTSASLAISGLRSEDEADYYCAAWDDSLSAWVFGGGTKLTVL
modifications: Non-covalent Zenon Alexa Fluor 647 label in the assay, not part of the letters
notes: the phage clone of the same number is m26; also called Antibody 601-137; copies: 2 + 2
B6: the binding result is given as “binds”.

B7: 601-43 (antibody, V domains shown)
VH: QVQLQQSGAEVKKPGASVRVSCKASGYSFGNNGITWVRQAPGQGLEWMGWISTYNGNTNYAQKLQGRVTMTTDTSTSTAYMELRSLRSDDTAVYYCARDYYSDSSGYWDDAFDIWGQGTTVTVSS
VL: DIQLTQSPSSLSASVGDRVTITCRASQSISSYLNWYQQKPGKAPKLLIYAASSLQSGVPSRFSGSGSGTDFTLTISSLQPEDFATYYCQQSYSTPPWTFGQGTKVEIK
modifications: Zenon Alexa Fluor 647 label, bound non-covalently to the Fc, is not carried in the letters
notes: the phage clone of the same number is m16; also called Antibody 601-43; copies: 2 + 2
For B7, the binding result is “binds”.
